Test [1] concerns the target T1, recombinant MHC class II protein of the HLA DRB1 0401 genotype (human).
T1 construct: construct not described; also called HLA-DR0401
The test can be described thus: in vitro binding assay.

In test [2] the target is T2, recombinant MHC class II protein of the HLA DRB1 0404 genotype (human).
T2 construct: construct not described
In words: in vitro binding assay.

Test [3] concerns the target T3, recombinant MHC class II protein of the HLA DRB1 0101 genotype (human).
T3 construct: construct not described
The test can be described thus: in vitro binding assay.

The target of test [4] is T4, recombinant MHC class II protein of the HLA DRB1 1001 genotype (human).
T4 construct: construct not described
In words: in vitro binding assay.

Test [5] deals with T5, recombinant MHC class II protein of the HLA DRB1 0408 genotype (human).
T5 construct: construct not described
The test can be described thus: in vitro binding assay.

Test [6] deals with T1, recombinant MHC class II protein of the …. In words: in vitro binding assay. The source holds these as a separate data set.
For test [7], the target named is T2, recombinant MHC class II protein of the …. The test can be described thus: in vitro binding assay. The source holds these as a separate data set.
In test [8] the target is T6, recombinant MHC class II protein of the HLA DRB1 0405 genotype (human).
T6 construct: construct not described
The test can be described thus: in vitro binding assay.

For test [9], the target named is T3, recombinant MHC class II protein of the …. In words: in vitro binding assay. The source holds these as a separate data set.
For test [10], the target named is T1, recombinant MHC class II protein of the …. In words: binds MHC in vitro.
Test [11] deals with T2, recombinant MHC class II protein of the …. In words: in vitro binding assay. This is another data set of the same source.
In test [12] the target is T3, recombinant MHC class II protein of the …. The test can be described thus: in vitro binding assay. This is another data set of the same source.
Test [13] deals with T6, recombinant MHC class II protein of the …. The test can be described thus: in vitro binding assay. The source holds these as a separate data set.
Test [14] deals with T4, recombinant MHC class II protein of the …. In words: in vitro binding assay. This is another data set of the same source.
The target in test [15] is T5, recombinant MHC class II protein of the …. The test can be described thus: in vitro binding assay. This is another data set of the same source.
Test [16] addresses T1, recombinant MHC class II protein of the …. The test can be described thus: in vitro binding assay. The source holds these as a separate data set.

Read-outs that look alike come from different tables or passages of the source. Square brackets hold non-standard residues; d marks the D form. Ends that are not written are not given here. Cit = NC(=O)NCCC[C@H](N)C(=O)O

As for MSILKIHAREIFDSR [corresponding non-citrullinated peptide of a-enolase peptide 287], the values for the binding result in test [1], in test [2] and in test [3] were “no binding”, “binds” and “binds”, respectively.

As for PKGANGDPG[Cit]PGEPG [citrullinated type II collagen peptide ref no 362], the binding result in test [4] is “binds”.

As for QGP[Cit]GLPGTPGTDGP [citrullinated type II collagen peptide ref no 384], the binding result in test [4] and in test [5] was “binds” each time.

Regarding [Cit]GPPGPQGA[Cit]GFPGT [citrullinated type II collagen peptide ref no 332], the binding result in test [6], in test [7] and in [8] was “binds” in each case.

For GPPGATGFPGAAGRV [type II collagen peptide ref no 224], the binding result in test [7] was “binds”.

As for LAGQRGIVGLPGQRG [type II collagen peptide ref no 241], the binding result was “no binding” in test [6], “binds” in test [7] and “binds” in test [8].

On to PQGPRGDKGEAGEPG [type II collagen peptide ref no 268], for which, in test [4], the binding result is on record as “binds”.

In the case of GDRGEAGAQGPMGPS [type II collagen peptide ref no 263], in test [4], the binding result is “binds”.

Turning to GIVGLPGQRGERGFP [type II collagen peptide ref no 242], the binding result in test [6], in test [7], in test [9] and in test [8] was “binds” in each case.

For the molecule GHRGFTGLQGLPGPP [type II collagen peptide ref no 272], in test [8], the binding result is on record as “binds”.

On to GDRGETGAVGAPGAP [type II collagen peptide ref no 257], for which the binding result in [7] is “binds”.

On to PQGARGFPGTPGLPG [type II collagen peptide ref no 100], for which, in test [7], the binding result is listed as “binds”.

As for PGLQGMPGERGAAGI [corresponding non-citrullinated peptide of type II collagen peptide 386], the binding result in test [2] was “binds”.

Consider KRIAKAVNEKSCNCL [a-enolase peptide ref no 66], for which the binding result is on record as “binds” in test [10]; “binds” in test [11]; “binds” in [12]; “binds” in test [13]; “no binding” in [14]; “binds” in [15].

Consider VMGFPGPKGANGEPG [type II collagen peptide ref no 166], for which the binding result in [7] is “binds”.

Regarding GEPGIAGFKGEQGPK [type II collagen peptide ref no 137], the binding result in test [6], in [7] and in [9] was “binds” each time.

KEGLELLKTAIGKAG [a-enolase peptide ref no 45]: the binding result is recorded as “binds” in test [16]; “binds” in test [11]; “binds” in [12]; “binds” in test [13]; “no binding” in test [14]; “binds” in test [15].

Regarding GIVGLPGQ[Cit]GE[Cit]GFP [citrullinated type II collagen peptide ref no 411], the binding result in test [6], in [7] and in test [8] was “binds” each time.

For RYMGKGVSKAVEHIN [corresponding non-citrullinated peptide of a-enolase peptide 297], the binding result was “no binding” in test [1] and “binds” in test [3].

For the molecule TSKGLF[Cit]AAVPSGAS [citrullinated a-enolase peptide ref no 291], the binding result in test [12] was “binds”; in test [13], “binds”; in test [14], “binds”; in [15], “no binding”; in test [1] it was “binds”; in test [2], “binds”.

On to KRIAKAVNEKSCNCL [corresponding non-citrullinated peptide of a-enolase peptide 313], for which the binding result in [1] and in test [3] was “binds” each time.

For the molecule ANFREAMRIGAEVYH [a-enolase peptide ref no 36], the binding result in test [16] was “no binding”; in [11] it was “no binding”; in [12], “binds”; in test [13], “binds”; in test [14], “no binding”; in [15], “no binding”.

B1: a-enolase peptide ref no 6 (peptide)
peptide: TSKGLFRAAVPSGAS
notes: also called corresponding non-citrinullated peptide of 291
As to B1, the binding result is “no binding” in test [16]; “binds” in test [12]; “binds” in test [13]; “no binding” in [14]; “no binding” in test [15]; “binds” in test [2].

For the molecule PGLQGMPGE[Cit]GAAGI [citrullinated type II collagen peptide ref no 386], the binding result in test [6] and in [7] was “binds” in each case.

As to APGN[Cit]GFPGQDGLAG [citrullinated type II collagen peptide ref no 357], the binding result in test [4] was “binds”.

With GIVGLPGQRGERGFP [corresponding non-citrullinated peptide of type II collagen peptide 411], the binding result in [1] and in [2] was “binds” in each case.

For the molecule LLKVNQIGSVTESLQ [a-enolase peptide ref no 69], the binding result in test [16] was “no binding”; in test [11], “no binding”; in [12] it was “no binding”; in test [13] it was “binds”; in test [14], “no binding”; in [15] it was “no binding”.

In the case of PSGFQGLPGPPGPPG [type II collagen peptide ref no 178], the binding result in test [8] was “binds”.

Turning to PGLQGMPGERGAAGI [type II collagen peptide ref no 195], in [7], the binding result is “binds”.

KGVPLY[Cit]HIADLAGN [citrullinated a-enolase peptide ref no 299]: the binding result in test [16] is given as “binds”; in test [11], “no binding”; in test [12], “no binding”; in test [13] it was “binds”; in [14] it was “no binding”; in [15] it was “binds”.

In the case of AGFKGEQGPKGEPGP [type II collagen peptide ref no 138], the binding result in [6] and in test [9] was “binds” in each case.

The values above are taken from patent US20200407424A1 (FRAUNHOFER GESELLSCHAFT ZUR F RDERUNG DER ANGEWANDTEN …, published 2020).
